This data set concerns the target T1, PhoP (non-phosphorylated) (Escherichia coli ExPEC (APEC) FY26 (O2:K1, ST95)?) (UniProt Q8CXZ9).
T1 sequence: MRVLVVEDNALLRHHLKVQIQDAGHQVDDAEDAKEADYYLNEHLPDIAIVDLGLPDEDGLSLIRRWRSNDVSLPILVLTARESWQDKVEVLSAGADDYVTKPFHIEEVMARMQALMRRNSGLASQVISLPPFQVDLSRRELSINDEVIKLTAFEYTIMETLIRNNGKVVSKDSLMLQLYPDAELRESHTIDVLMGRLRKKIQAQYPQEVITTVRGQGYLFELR
As to the kind of experiment: EMSA.

Regarding “CAGGACTGAAACGCTTCCTTCATGTTGGTACTGCTATGTCTTGTACACCTCATACGGGGTCGCTAGTTAAGGAAGAGTCTGCTTCATCAGAAACAGGTGAACATTTAGTGGAGTATACGCATTCAAAAGCAACAATAGAATATCTGATGCGTAAGCAGTGTCCTGATTTACCTTTGTTGGTTGCCCGACCATCAATTATT (double strand)”, the binding result was “no binding”.

The values above are taken from PMC5913352.
